Columns and labels:
[1] = system: K4 kissing-loop RNA reporter; assay: apparent KD of K4 kissing-loop reporter; higher = weaker reporter binding; conditions: Eterna round: R107;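 note: bound reporter read as fluorescence of individual clusters on recovered sequencing chips by microscopy, with normalized cluster intensities fitted with a binding model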
Description: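 RNA-MaP round R107: designed RNA switches with theophylline, tryptophan, arginine or FMN aptamers are transcribed on-chip within common flanks. They are titrated with a labelled K4 kissing-loop RNA reporter in RNA-MaP buffer (100 mM Tris pH 7.5, 80 mM KCl, 4 mM MgCl2), without ligand or with the indicated ligand. Median apparent KD per design.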

MS2 coat protein = assay: apparent KD of MS2 coat protein; designed switch direction (-1 OFF switch, 1 ON switch): -1; higher = weaker reporter binding
Procedure, shortened: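 Designed RNA switches with common flanks were transcribed on Illumina chips by stalled E. coli RNA polymerase and titrated with SNAP-549-labelled MS2 coat protein, from 0.7 or 1.5 nM doubling to 3 µM, in Tris-HCl pH 7.5 buffer with KCl, MgCl2, BSA, DTT, tRNA and Tween-20. Steps lasted 0.8–1.5 h (lowest) to 10–20 min (highest). Titrations ran without input, with 200 uM small-molecule ligand, or with an oligonucleotide input. Normalised cluster fluorescence was curve-fitted, and apparent KD is the per-design median over clusters.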

[2] = input ligand: microRNA oligo, concentration not stated
[3] = Eterna round: R95, input ligand: microRNA oligo, concentration not stated

| Sequence | apparent KD of MS2 coat protein (MS2 coat protein; input ligand: FMN 200 uM) [nM] | apparent KD of MS2 coat protein (MS2 coat protein; input ligand: none) [nM] | apparent KD of MS2 coat protein (MS2 coat protein; [3]) [nM] | further results |
| --- | --- | --- | --- | --- |
| AAACCCAGUGAUGUUGGGAAUCAGUUGAGGGAGGAUAUUGGUAAUACAAGAAGGCCCGGCUGCGGGUGAUGUUCGCAUUAGGGCC [Exclusion FMN A GF17] |  |  |  | apparent KD of K4 kissing-loop reporter ([1]; input ligand: FMN 200 uM): 160 nM; apparent KD of K4 kissing-loop reporter ([1]; input ligand: arginine 13.2 mM): 157 nM; apparent KD of K4 kissing-loop reporter ([1]; input ligand: none): 152 nM; apparent KD of K4 kissing-loop reporter ([1]; input ligand: theophylline 20 uM): 154 nM; apparent KD of K4 kissing-loop reporter ([1]; input ligand: tryptophan 2.4 mM): 140 nM |
| UUUUAAUAUGAAGGAUAUACUUAACAUGAGGAUCACCCAUGUGGUGUUGUGAGUGAGUGAGUUUAGUAGAAGGUCAAUUAUUUU [JMF's solution 25] (Eterna round: R96, puzzle: Exclusion NG 2) | 1020 | 405 |  | apparent KD of MS2 coat protein (MS2 coat protein; [2]): 249 nM |
| UUUUACAUAGGAUAUAGUUUGUUGUACAUGAGGAUCACCCAUGUUUUUGUUUGUGCUUUUCUAGAAGGAUGUUUCU [JR_E5_Sub016] (puzzle: Exclusion 5) |  |  | 28.9 |  |
| UUUUACCGAGGAUAUACAUAUAAAUAAUAAUCCUCAUUAUUACAUGAGGAUCACCCAUGUAGAAGGCGGAUUUU [Mat - Exclusion 2 - Mod of Hog - D88] (puzzle: Exclusion 2) |  |  | 96.3 |  |
| UUUUAGAGAGGAUAUAUAUUGUGAAACAUGAGGAUCACCCAUGUAAUAAUAUGGAUAUAAAUAGAAGGCUCAUUUA [Mat - Exclusion 5 - JL mod - D8] (puzzle: Exclusion 5) |  |  | 26.9 | apparent KD of MS2 coat protein (MS2 coat protein; Eterna round: R95, input ligand: FMN 200 uM): 25.7 nM; apparent KD of MS2 coat protein (MS2 coat protein; Eterna round: R95, input ligand: none): 28.8 nM |
| UUUUAGCAAGCGAGUAUUAACAUGAGGAUCACCCAUGUGCAUCCAGUAUUACUUUUAGAUCAAGCUCGUCUUAUAUA [JR_STOV1_v2_Sub082] (Eterna round: R97, puzzle: Sensor, turn-off variant 1) | 199 | 285 |  |  |
| UUUUAGCAAGGAUAUACAUUUUUUUUAUUAUCCUCAUUAUUACAUGAGGAUCACCCAUGUAGAAGGUGCAUUUU [My Design] (puzzle: Exclusion 2) |  |  | 36.7 |  |
| UUUUAGUAAGGAUAUGAUUAGAUCUACGAAAGUAGAUCUAAUCAGAAGGUACAUGAGGAUCACCCAUGUAGAUU [Mod of Brourd 3 - Jieux - Exclusion 4] (Eterna round: R97, puzzle: Exclusion 4) | 24.2 | 18.5 |  |  |
| UUUUAGUCAGGAUAUACAUGAGGAUCACCCAUGUAAAAUUUUAAUUUAAUUUGAAUGUGUAGAAGGGACAUUUU [Ex3 #41] (Eterna round: R97, puzzle: Exclusion 3) | 23.6 | 26.4 |  |  |
| UUUUAUUGCAAGGAUAUGCAAAUUAUUAUUAAUGCAGAAGGUGCUACAUGAGGAUCACCCAUGUUUCUGGGUUU [JR_E6_Sub043] (puzzle: Exclusion 6) |  |  | 110 |  |
| UUUUCGUAAGGAUAUGGUUAGAUCUACGAAAGUAGAUCUAACCAGAAGGUACAUGAGGAUCACCCAUGUUGGUA [Mod of Brourd 22 - Jieux - Exclusion 4] (Eterna round: R97, puzzle: Exclusion 4) | 79.8 | 29.9 |  |  |
| UUUUGCACGCUGCGGUCCUACAUGAGGAUCACCCAUGUGGUCUGGUGGCGUGGGUCGCCGGACUUGGCUCGUCUUGA [salish99_S_TOV1_R5_037] (Eterna round: R97, puzzle: Sensor, turn-off variant 1) | 17.5 | 18.2 |  |  |
| UUUUGCUCAGGAUAUACAUGAGGAUCACCCAUGUAUAUUGAAGGUAAUACAUGGGAAUGUAGAAGGGAGCUCAU [Omei Ex3 Pseudoloop 21] (Eterna round: R97, puzzle: Exclusion 3) | 47.9 | 70.4 |  |  |
| UUUUGGCAUGUAGGAUAUGGGUCCGAUUAGGAUUUAGAAGGACAUGAGGAUCACCCAUGUGCACUUAAUUGGUCUUUUUUUUUU [EXclNG1-LROPPY16] (Eterna round: R96, puzzle: Exclusion NG 1) | 37.7 | 36.5 |  | apparent KD of MS2 coat protein (MS2 coat protein; [2]): 23.5 nM |
| UUUUGGCAUGUAGGAUAUGGGUCCGAUUAGGAUUUAGAAGGACAUGAGGAUCACCCAUGUGCAUUUAAUUGGUCAUUACCUUUU [EXclNG1-LROPPY11] (Eterna round: R96, puzzle: Exclusion NG 1) |  |  |  | apparent KD of MS2 coat protein (MS2 coat protein; [2]): 65.5 nM |
| UUUUGGCAUGUAGGAUAUGGGUCCGAUUGGGAUUUAGAAGGACAUGAGGAUCACCCAUGUGCCCUUACUUGGUCUUUUUUUUUU [EXclNG1-LROPPY19] (Eterna round: R96, puzzle: Exclusion NG 1) | 298 | 228 |  | apparent KD of MS2 coat protein (MS2 coat protein; [2]): 128 nM |
| UUUUGUCAGGUAUUUAUUAACAUGAGGAUCACCCAUGUGCAUCCAAAAUUACUUUUAGAUCAAGCUCGUCUUAUAUA [JR_STOV1_Sub089] (Eterna round: R97, puzzle: Sensor, turn-off variant 1) | 94.3 | 102 |  |  |
| UUUUUAUAUGAAGGAUAUACUUAACAUGAGGAUCACCCAUGUGGUGUUGUGAGUGAGUGAGUUUAGUAGAAGGUCAAUUCUUAU [JMF's solution 82] (Eterna round: R96, puzzle: Exclusion NG 2) | 516 | 395 |  | apparent KD of MS2 coat protein (MS2 coat protein; [2]): 651 nM |
| UUUUUAUUUGAAGGAUAUACUUAACAUGAGGAUCACCCAUGUGGUGUUGUGAGUGAGUGAGUUUAGUAGAAGGUCAAUUAUUUU [JMF's solution 18] (Eterna round: R96, puzzle: Exclusion NG 2) |  |  |  | apparent KD of MS2 coat protein (MS2 coat protein; [2]): 359 nM |
| UUUUUCUCAGGAUAUACAUGAGGAUCACCCAUGUAUAUUAAGGAUAAUACAUGGGAAUGUAGAAGGGAGCUCAU [Omei Ex3 Pseudoloop 12] (Eterna round: R97, puzzle: Exclusion 3) | 106 | 160 |  |  |
| UUUUUGUAUGAAGGAUAUACUUAACAUGAGGAUCACCCAUGUGGUGUUGUGAGUGAGUGAGUUUAGUAGAAGGUCAAGUAUUUU [JMF's solution 46] (Eterna round: R96, puzzle: Exclusion NG 2) | 580 | 390 |  | apparent KD of MS2 coat protein (MS2 coat protein; [2]): 606 nM |
| UUUUUGUCAGGAUAUGACUAGAUGCACGUUAGUGUAUUUACUUAGAAGGGACAUGAGGAUCACCCAUGUAUUCC [Bring Us a Shrubbery-13] (puzzle: Exclusion 4) |  |  | 26.2 |  |
| UUUUUGUGAGGAUAUCAGUAGUAAAAAAAUAAAAUUACUACUGAGAAGGCACAUGAGGAUCACCCAUGUUUUUC [salish99_ex4_r3_014] (puzzle: Exclusion 4) |  |  | 35.6 |  |
| UUUUUUGUUGUGAGGAUAUCGUUGUGGAUGUGGAUCGAGAAGGCACAUGAGGAUCACCCAUGUUUGUUGUGGUU [JR_BMOE4_Sub085] (puzzle: Brourd's mod of Exclusion 4) |  |  | 86.7 |  |
| UUUUUUUUGGUAAGGAUAUGAUGCAGGAAACUGCGUCAGAAGGUACAUGAGGAUCACCCAUGUUAAUUUUUUUU [Explosion 11 - Jieux - Brourd's mod of Exclusion 4] (Eterna round: R97, puzzle: Brourd's mod of Exclusion 4) | 23 | 18.6 |  |  |

Reference: the supplement of paper PMC9170038
